# From patent US11821042B2, “Targeting chromosomal instability and downstream cytosolic DNA signaling for cancer treatment” (Cornell University, priority 2017, dated 2023)
# B1: Kif2b: kinesin-13 protein, human sequence SEQ ID NO:1, overexpressed in tumor cells (protein, listed as Homo sapiens)
# chain: MASQFCLPESPCLSPLKPLKPHFGDIQEGIYVAIQRSDKRIHLAVVTEINRENYWVTVEWVEKAVKKGKKIDLETILLLNPALDSAEHPMPPPPLSPLALAPSSAIRDQRTATKWVAMIPQKNQTASGDSLDVRVPSKPCLMKQKKSPCLWEIQKLQEQREKRRRLQQEIRARRALDVNTRNPNYEIMHMIEEYRRHLDSSKISVLEPPQEHRICVCVRKRPLNQRETTLKDLDIITVPSDNVVMVHESKQKVDLTRYLQNQTFCFDHAFDDKASNELVYQFTAQPLVESIFRKGMATCFAYGQTGSGKTYTMGGDFSGTAQDCSKGIYALVAQDVFLLLRNSTYEKLDLKVYGTFFEIYGGKVYDLLNWKKKLQVLEDGNQQIQVVGLQEKEVCCVEEVLNLVEIGNSCRTSRQTPVNAHSSRSHAVFQIILKSGRIMHGKFSLVDLAGNERGADTTKASRKRQLEGAEINKSLLALKECILALGQNKPHTPFRASKLTLVLRDSFIGQNSSTCMIATISPGMTSCENTLNTLRYANRVKKLNVDVRPYHRGHYPIGHEAPRMLKSHIGNSEMSLQRDEFIKIPYVQSEEQKEIEEVETLPTLLGKDTTISGKGSSQWLENIQERAGGVHHDIDFCIARSLSILEQKIDALTEIQKKLKLLLADLHVKSKVE
# B2: MCAK/Kif2c: kinesin-13 protein, human sequence SEQ ID NO:3 or 7, overexpressed in tumor cells (protein, listed as Homo sapiens)
# chain: MAMDSSLQARLFPGLAIKIQRSNGLIHSANVRTVNLEKSCVSVEWAEGGATKGKEIDFDDVAAINPELLQLLPLHPKDNLPLQENVTIQKQKRRSVNSKIPAPKESLRSRSTRMSTVSELRITAQENDMEVELPAAANSRKQFSVPPAPTRPSCPAVAEIPLRMVSEEMEEQVHSIRGSSSANPVNSVRRKSCLVKEVEKMKNKREEKKAQNSEMRMKRAQEYDSSFPNWEFARMIKEFRATLECHPLTMTDPIEEHRICVCVRKRPLNKQELAKKEIDVISIPSKCLLLVHEPKLKVDLTKYLENQAFCFDFAFDETASNEVVYRFTARPLVQTIFEGGKATCFAYGQTGSGKTHTMGGDLSGKAQNASKGIYAMASRDVFLLKNQPCYRKLGLEVYVTFFEIYNGKLFDLLNKKAKLRVLEDGKQQVQVVGLQEHLVNSADDVIKMLDMGSACRTSGQTFANSNSSRSHACFQIILRAKGRMHGKFSLVDLAGNERGADTSSADRQTRMEGAEINKSLLALKECIRALGQNKAHTPFRESKLTQVLRDSFIGENSRTCMIATISPGISSCEYTLNTLRYADRVKELSPHSGPSGEQLIQMETEEMEACSNGALIPGNLSKEEEELSSQMSSFNEAMTQIRELEEKAMEELKEIIQQGPDWLELSEMTEQPDYDLETFVNKAESALAQQAKHFSALRDVIKALRLAMQLEEQASRQISSKKRPQ
# B3: Lamin B2: mCherry-Lamin B2 overexpressed to stabilize micronuclear envelopes (protein, UniProt Q03252 1-617, looked up)
# Lamin-B2: MSPPSPGRRREQRRPRAAATMATPLPGRAGGPATPLSPTRLSRLQEKEELRELNDRLAHYIDRVRALELENDRLLLKISEKEEVTTREVSGIKALYESELADARRVLDETARERARLQIEIGKLRAELDEVNKSAKKREGELTVAQGRVKDLESLFHRSEVELAAALSDKRGLESDVAELRAQLAKAEDGHAVAKKQLEKETLMRVDLENRCQSLQEELDFRKSVFEEEVRETRRRHERRLVEVDSSRQQEYDFKMAQALEELRSQHDEQVRLYKLELEQTYQAKLDSAKLSSDQNDKAASAAREELKEARMRLESLSYQLSGLQKQASAAEDRIRELEEAMAGERDKFRKMLDAKEQEMTEMRDVMQQQLAEYQELLDVKLALDMEINAYRKLLEGEEERLKLSPSPSSRVTVSRATSSSSGSLSATGRLGRSKRKRLEVEEPLGSGPSVLGTGTGGSGGFHLAQQASASGSVSIEEIDLEGKFVQLKNNSDKDQSLGNWRIKRQVLEGEEIAYKFTPKYILRAGQMVTVWAAGAGVAHSPPSTLVWKGQSSWGTGESFRTVLVNADGEEVAMRTVKKSSVMRENENGEEEEEEAEFGEEDLFHQQGDPRTTSRGC
# modifications: mCherry fusion
# notes: mCherry-Lamin B2 overexpressed to stabilize micronuclear envelopes
# B4: Dnase2: Dnase2 overexpressed using a pLenti-GIII-CMV-RFP-2A-Puro plasmid (protein, UniProt O00115 19-360, looked up)
# Deoxyribonuclease-2-alpha: CYGDSGQPVDWFVVYKLPALRGSGEAAQRGLQYKYLDESSGGWRDGRALINSPEGAVGRSLQPLYRSNTSQLAFLLYNDQPPQPSKAQDSSMRGHTKGVLLLDHDGGFWLVHSVPNFPPPASSAAYSWPHSACTYGQTLLCVSFPFAQFSKMGKQLTYTYPWVYNYQLEGIFAQEFPDLENVVKGHHVSQEPWNSSITLTSQAGAVFQSFAKFSKFGDDLYSGWLAAALGTNLQVQFWHKTVGILPSNCSDIWQVLNVNQIAFPGPAGPSFNSTEDHSKWCVSPKGPWTCVGDMNRNQGEEQRGGGTLCAQLPALWKAFQPLVKNYQPCNGMARKPSRAYKI
# B5: Kif2a: third microtubule-depolymerizing kinesin-13 protein lacking kinetochore or centromere localization domains; control (protein, UniProt O00139 1-706, looked up)
# Kinesin-like protein KIF2A: MATANFGKIQIGIYVEIKRSDGRIHQAMVTSLNEDNESVTVEWIENGDTKGKEIDLESIFSLNPDLVPDEEIEPSPETPPPPASSAKVNKIVKNRRTVASIKNDPPSRDNRVVGSARARPSQFPEQSSSAQQNGSVSDISPVQAAKKEFGPPSRRKSNCVKEVEKLQEKREKRRLQQQELREKRAQDVDATNPNYEIMCMIRDFRGSLDYRPLTTADPIDEHRICVCVRKRPLNKKETQMKDLDVITIPSKDVVMVHEPKQKVDLTRYLENQTFRFDYAFDDSAPNEMVYRFTARPLVETIFERGMATCFAYGQTGSGKTHTMGGDFSGKNQDCSKGIYALAARDVFLMLKKPNYKKLELQVYATFFEIYSGKVFDLLNRKTKLRVLEDGKQQVQVVGLQEREVKCVEDVLKLIDIGNSCRTSGQTSANAHSSRSHAVFQIILRRKGKLHGKFSLIDLAGNERGADTSSADRQTRLEGAEINKSLLALKECIRALGRNKPHTPFRASKLTQVLRDSFIGENSRTCMIATISPGMASCENTLNTLRYANRVKELTVDPTAAGDVRPIMHHPPNQIDDLETQWGVGSSPQRDDLKLLCEQNEEEVSPQLFTFHEAVSQMVEMEEQVVEDHRAVFQESIRWLEDEKALLEMTEEVDYDVDSYATQLEAILEQKIDILTELRDKVKSFRAALQEEEQASKQINPKRPRAL
# Key:
# MDA-MB-231 cells [1] = experiment: Chromosome missegregation in anaphase cells; format: cell-based, human; settings: overexpression in MDA-MB-231 cells
# Description: (§1) Primary tumor specimens were analyzed from 60 patients with head and neck squamous cell carcinoma (HNSCC) (Chung et al. Cancer Cell 5, 489-500 (2004)). Forty patients had Hematoxylin and Eosin-stained (H&E) primary tumor samples of sufficient quality for high-resolution microscopy analysis. Analysis was restricted to cells fixed while undergoing anaphase as previously described (Bakhoun et al. Clin. Cancer Res. 17, 7704-7711 (2011); Zaki et al. Cancer 120, 1733-1742 (2014)). Chromosome missegregation was defined by hematoxylin staining presence in between the remaining segregating chromosomes during anaphase and it was reported as the percentage of cells undergoing anaphase with evidence of chromosome missegregation. Clinical lymph node status was defined by clinical examination or radiographic evidence of lymph node tumor involvement (Chung et al. Cancer Cell 5, 489-500 (2004)).
# (§2) Cell fixation and antibody staining were performed as described (Bakhoun et al. Nat Commun 6, 5990 (2015)). Briefly, cells were fixed with ice-cold (−30 C) methanol for 15 minutes—when staining for centromeres, centrosomes, cGAS, Vimentin, β-actin, or α-tubulin—or 4% paraformaldehyde—when staining for RelB, p65, IRF3, ssDNA, dsDNA, CoxIV, or β-catenin. Subsequently, cells were permeabilized using 1% triton for 4 minutes. See Table 1 for antibody information.
# (§3) To determine whether chromosomal instability is causally involved in metastasis, we devised a genetic approach (Bakhoun et al., Nat. Cell Biol. 11, 27-35 (2009); Bakhoun et al., Nat Commun 6, 5990 (2015)) to alter the rate of chromosome missegregation in transplantable tumor models of human TNBC (MDA-MB-231) and lung adenocarcinoma (H2030). […] These cells, with unperturbed chromosome segregation rates, are referred to a as CIN-medium cells. […] As an important control, Kif2a was overexpressed, Kif2a is a third member of the microtubule-depolymerizing kinesin-13 proteins that lacks any kinetochore or centromere localization domains (Ems-McClung et al. Semin. Cell Dev. Biol. 21, 276-282 (2010)).
# H2030 cells = experiment: Chromosome missegregation in anaphase cells; format: cell-based, human; settings: overexpression in H2030 cells
# Description: as §1, §2, §3
# MDA-MB-231 cells [2] = experiment: Intracardiac injection metastasis model, bioluminescence imaging and disease-specific survival; format: in vivo, mice; settings: intracardiac injection of MDA-MB-231 cells expressing the protein, FIG. 2E
# Description: Animal experiments were performed in accordance with protocols approved by the Weill Cornell Medicine Institutional Animal Care and Use Committee. […] There was no need to randomize animals. Investigators were not blinded to group allocation. Intracardiac injection was performed as previously described (Chen et al. Nature 533, 493-498 (2016)). Briefly, cells were trypsinized and washed with PBS and a 1×10^5 cells (in 100 μl of PBS) were injected into the left cardiac ventricle of female athymic 6-7-week-old athymic nude (nu/nu) mice (Jackson Laboratory strain 002019). Mice were then immediately injected with D-luciferin (150 mgkg^−1) and subjected to bioluminescence imaging (BLI) using tan IVIS Spectrum Xenogen instrument (Caliper Life Sciences) to ensure systemic dissemination of tumor cells. Metastatic burden was measured at week 5 after injection using BLI and in the case of MDA-MB-231 mice BLI images were taken every 1-2 weeks for up to 17 weeks. BLI images were analyzed using Living Image Software v.2.50. Disease-specific survival endpoint was met when the mice died or met the criteria for euthanasia under the IACUC protocol and had radiographic evidence of metastatic disease. For Orthotopic tumor implantation, 2.5×10^5 cells in 50p of PBS were mixed 1:1 with Matrigel (BD Biosciences) and injected into the fourth mammary fat pad. Only one tumor was implanted per animal. Primary tumors were surgically excited when they reached ˜1.5 cm in the largest dimension and metastatic dissemination was assessed using BLI imaging at 1-week to 3-week intervals for up to 30 weeks. Distant metastasis-free survival endpoint was met when BLI signal was seen outside of site of primary tumor transplantation. To derive short-term culture from primary tumors and metastases, anesthetized animals (isofluorane) were imaged then sacrificed. Ex-vivo BLI was subsequently performed on harvested organs to define the precise location of the metastatic lesion. Primary tumors and metastases were subsequently mechanically dissociated and cultured in DMEM with selection media to select for tumor cells. […]
# cGAS = cGAS localization to micronuclei by immunofluorescence; format: cell-based, human; settings: Lamin B2 overexpression in dnMCAK cells
# Description: as §2
# cytosolic DNA = experiment: Cytosolic dsDNA and ssDNA staining after selective plasma membrane permeabilization; format: cell-based, human; settings: after overexpression of Dnase2
# Description: as §2
# For selective plasma membrane permeabilization used for cytosolic dsDNA and ssDNA staining, cells were treated with 0.02% saponin for 5 minutes after fixation. For single-stranded (Thermo Fisher FEREN0321) and double stranded (Life Technologies—EN0771)-specific nuclease treatment, cells were also permeabilized with 0.02% saponin for 2 minutes and treated with either nucleases for 10 minutes before fixation using 4% paraformaldehyde. TBS-BSA was used as a blocking agent during antibody staining. DAPI was added together with secondary antibodies. Cells were mounted with Prolong Diamond Antifade Mountant (Life Technologies—P36961).
Molecule,chromosome segregation errors during anaphase (MDA-MB-231 cells [1]),chromosome segregation errors during anaphase (H2030 cells),disease-specific survival of mice (MDA-MB-231 cells [2]),relative fraction of micronuclei with cGAS staining (cGAS),cytosolic dsDNA staining signal (cytosolic DNA)
B1,significant suppression,significant suppression,most survival,–,–
B2,significant suppression,significant suppression,most survival,–,–
B3,–,–,–,significantly diminished,–
B4,–,–,–,–,disappeared
B5,no effect,no effect,middle levels of survival,–,–
